{"source": "patent US20230121197A1", "about": "“ANTIBODIES SPECIFICALLY BINDING THE CARBOXYMETHYLATED CATALYTIC SUBUNIT OF PROTEIN PHOSPHATASE 2A” (Medizinische Universität Wien, priority 2020, published 2023)", "key": {"[1]": {"molecular_target": "T1, PP6c peptides L305, meL305 (Homo sapiens, UniProt O00743)", "T1 construct": "carboxymethylated versus non-methylated PP2Ac, PP4c and PP6c C-terminal undecapeptides", "experiment": "ELISA with PP6c C-terminal undecapeptides", "format": "binding", "description": "To further characterize the carboxymethyl-PP2Ac specificity of monoclonal antibody 7C10-C5 ELISAs were performed on carboxymethylated versus non-methylated PP2Ac, PP4c and PP6c C-terminal undecapeptides.\nSpecifically, flat-bottom Nunc-Immuno Medisorp 96-well ELISA plates (Thermo; 467320) were coated o/n at 4° C. with 50 μl of either a peptide of the sequence ac-HVTRRTPDYFL-OH (L309) (SEQ ID NO:18) at a concentration of 2 μg/ml in TBS (137 mM NaCl (AppliChem, #131659, 2.7 mM KCl (AppliChem, #131494), 24.8 mM Tris (AppliChem, #A1086), pH 7.4 with HCl), a peptide of the sequence ac-HVTRRTPDYFL-CH3 (meL309) (SEQ ID NO:18) 2 μg/ml in TBS, with a peptide of the sequence (ac-PSKKPVADYFL (L307) (SEQ ID NO:20) at a concentration of 2 μg/ml in TBS or with a peptide of the sequence ac-PSKKPVADYFL-CH3 (meL307) (SEQ ID NO:20) at a concentration of 2 μg/ml in TBS, with a peptide of the sequence ac-IPPRTTTPYFL (L305) (SEQ ID NO:22) at a concentration of 2 μg/ml in TBS or with a peptide of the sequence ac-IPPRTTTPYFL-CH3 (meL305) (SEQ ID NO:22) at a concentration of 2 μg/ml in TBS. […] Bound antibodies were detected colorimetrically by addition of 50 μl of 33 μg/ml […] (TMB) (Sigma, T2885) in 0.1 M sodium acetate pH 6.0 and 0.01% H2O2 (Sigma, H1009). […] The results from 560 nm read were subtracted from the 450 nm read."}, "[2]": {"molecular_target": "T2, C(βA)TPDYFL-CH3 peptide (carboxymethylated PP2Ac C-terminus) (Homo sapiens, UniProt P67775)", "T2 construct": "purchased PiChem GmbH (Graz, Austria)", "experiment": "ELISA screening of hybridoma supernatants with C(βA)TPDYFL peptides", "format": "binding", "details": "undiluted supernatants, peptides at 3 μg/ml", "description": "In parallel to the immunoblotting screening, hybridoma supernatants were tested for the presence of TPDYFL-CH3 (SEQ ID NO:1) specific IgG antibodies by ELISA. Specifically, flat-bottom Nunc-Immuno Medisorp 96-well ELISA plates (Thermo; 467320) were coated over night at 4° C. with 50 μl of either a peptide of the sequence C(βA)TPDYFL (SEQ ID NO:48) at a concentration of 3 μg/ml in 10 mM sodium phosphate buffer pH 7.0 or with a peptide of the sequence C(βA)TPDYFL-CH3 (SEQ ID NO:48) at a concentration of 3 μg/ml in 10 mM sodium phosphate buffer pH 7.0. The wells were washed once with PBS, blocked with 180 μl of 2% bovine serum albumin (Sigma, A9647) in PBS for 1 hour at RT and washed again once with PBS. […] Bound antibodies were detected colorimetrically by addition of 50 μl of 33 μg/ml […] (TMB) (Sigma, T2885) in 0.1 M sodium acetate pH 6.0 and 0.01% H2O2 (Sigma, H1009). The colorimetric reaction was stopped after 28 min by addition of 50 μl 0.5 M H2SO4, and absorbance was measured at 450 nm with a Perkin Elmer Wallac Victor 2 1420 Multilabel Counter."}, "[3]": {"molecular_target": "PP2Ac C-terminal peptide pT304-meL309, ac-HVTRRpTPDYFL-CH3 (human)", "experiment": "ELISA, peptide coated at 2 µg/ml, supernatant 1:50"}}, "data": [{"molecule": "7C10-C5: α-carboxymethylation specific mouse monoclonal IgG1 antibody from single clone hybridoma 7C10-C5 (DSM ACC3350) (antibody, Amino acid sequence of the recombinant 7C10-C5 heavy chain; Amino acid sequence of the recombinant 7C10-C5 light chain) heavy: MYRMQLLSCIALSLALVTNSDVQLQESGPGLVKPSQSLSLTCSVTGYSITSGYYWNWIRQFPGNKLEWMGYISYDGSNNYNPSLKNRISITRDTSKNQFFLKLNSVTTEDTATYYCAGRFAYWGQGTLVTVSAAKTTAPSVYPLAPVCGDTTGSSVTLGCLVKGYFPEPVTLTWNSGSLSSGVHTFPAVLQSDLYTLSSSVTVTSSTWPSQSITCNVAHPASSTKVDKKIEPRGPTIKPCPPCKCPAPNLLGGPSVFIFPPKIKDVLMISLSPIVTCVVVDVSEDDPDVQISWFVNNVEVHTAQTQTHREDYNSTLRVVSALPIQHQDWMSGKEFKCKVNNKDLPAPIERTISKPKGSVRAPQVYVLPPPEEEMTKKQVTLTCMVTDFMPEDIYVEWTNNGKTELNYKNTEPVLDSDGSYFMYSKLRVEKKNWVERNSYSCSVVHEGLHNHHTTKSFSRTPGK light: MDMRVPAQLLGLLLLWLSGARCDVLMTQTPLSLPVSLGDQASISCRSSQSIVHSNGNTYLEWYLQKPGQSPKLLIYKVSNRFSGVPDRFSGSGSGTDFTLKINRVEAEDLGVYYCFQGSHVPWTFGGGTKLEIKADAAPTVSIFPPSSEQLTSGGASVVCFLNNFYPKDINVKWKIDGSERQNGVLNSWTDQDSKDSTYSMSSTLTLTKDEYERHNSYTCEATHKTSTSPIVKSFNRNEC", "values": [{"measurement": "carboxymethylated versus non-carboxymethylated PP6c peptide signal", "setting": "[1]", "value": "No significant difference"}]}, {"molecule": "7C10-C5 monoclonal antibody (antibody, V domains shown, Used as hybridoma culture supernatant (ELISA, Western blot, IHC) or at 50 µg/mL (SPR); also called 7C10 X63; clone 7C10-C5) VH: DVQLQESGPGLVKPSQSLSLTCSVTGYSITSGYYWNWIRQFPGNKLEWMGYISYDGSNNYNPSLKNRISITRDTSKNQFFLKLNSVTTEDTATYYCAGRFAYWGQGTLVTVSA VL: DVLMTQTPLSLPVSLGDQASISCRSSQSIVHSNGNTYLEWYLQKPGQSPKLLIYKVSNRFSGVPDRFSGSGSGTDFTLKINRVEAEDLGVYYCFQGSHVPWTFGGGTKLEIK", "values": [{"measurement": "detection of carboxymethylated versus non-carboxymethylated peptide", "setting": "[2]", "value": "detected the carboxymethylated peptide"}, {"measurement": "fold higher ELISA signal intensity than with the carboxymethylated peptide without phosphorylation (meL309)", "setting": "[3]", "value": 1.6, "unit": "fold"}]}]}
